Experimental data reported in US20230331862A1 (SHANGHAI GENBASE BIOTECHNOLOGY, published 2023).

T1: CEACAM5 (CD66e) on tumour cells (human, UniProt P06731 35-685, glycosylated (natural, as on tumour cells))
T1 construct: whole, on cells; One molecule for CEACAM5 on all three cell lines; the cell line is named under assay; also called natural CEACAM5 antigen; Lovo cells
T1 sequence (looked up): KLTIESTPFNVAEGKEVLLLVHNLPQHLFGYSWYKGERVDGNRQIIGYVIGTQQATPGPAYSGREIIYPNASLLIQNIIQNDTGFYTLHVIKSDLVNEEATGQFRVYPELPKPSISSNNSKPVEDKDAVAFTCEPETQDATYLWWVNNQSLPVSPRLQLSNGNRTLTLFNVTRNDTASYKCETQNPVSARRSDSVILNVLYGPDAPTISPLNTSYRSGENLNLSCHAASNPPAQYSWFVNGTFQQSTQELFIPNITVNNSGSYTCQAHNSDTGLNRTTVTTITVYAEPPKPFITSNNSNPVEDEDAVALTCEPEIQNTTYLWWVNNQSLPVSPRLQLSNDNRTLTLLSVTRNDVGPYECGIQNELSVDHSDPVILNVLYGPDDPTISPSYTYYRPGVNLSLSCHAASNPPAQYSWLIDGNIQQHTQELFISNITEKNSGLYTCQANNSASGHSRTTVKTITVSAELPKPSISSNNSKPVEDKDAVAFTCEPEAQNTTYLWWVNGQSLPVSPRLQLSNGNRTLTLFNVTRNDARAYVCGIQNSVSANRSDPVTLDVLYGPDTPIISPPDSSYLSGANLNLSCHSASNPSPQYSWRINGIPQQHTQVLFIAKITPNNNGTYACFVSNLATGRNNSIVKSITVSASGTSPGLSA

T2: recombinant CEACAM5 antigen (Sinobiological, 11077-H08H) (UniProt P06731 35-685)
T2 construct: Bought protein; also called CEACAM5-His recombinant protein; CEACAM5-His antigen; not shown: His tag
T2 sequence (looked up): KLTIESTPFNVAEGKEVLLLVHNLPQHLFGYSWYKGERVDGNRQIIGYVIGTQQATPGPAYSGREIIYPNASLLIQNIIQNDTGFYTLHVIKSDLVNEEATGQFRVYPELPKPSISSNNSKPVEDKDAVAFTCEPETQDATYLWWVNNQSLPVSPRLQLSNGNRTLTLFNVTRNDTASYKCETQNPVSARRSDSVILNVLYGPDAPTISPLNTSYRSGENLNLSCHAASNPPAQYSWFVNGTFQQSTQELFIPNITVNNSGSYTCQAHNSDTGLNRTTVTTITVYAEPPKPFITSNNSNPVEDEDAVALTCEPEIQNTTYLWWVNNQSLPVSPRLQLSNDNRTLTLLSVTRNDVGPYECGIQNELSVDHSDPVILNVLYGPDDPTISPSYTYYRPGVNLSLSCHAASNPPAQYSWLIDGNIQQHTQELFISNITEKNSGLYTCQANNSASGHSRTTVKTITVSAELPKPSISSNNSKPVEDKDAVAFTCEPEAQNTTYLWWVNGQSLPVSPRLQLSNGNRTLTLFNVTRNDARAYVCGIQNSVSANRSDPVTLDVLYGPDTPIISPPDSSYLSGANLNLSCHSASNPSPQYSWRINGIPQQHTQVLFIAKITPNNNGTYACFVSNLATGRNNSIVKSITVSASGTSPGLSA


What was measured:
[1] = biological target: T1, CEACAM5 (CD66e) on tumour cells; assay: flow cytometry on KATO3 cells, anti-human IgG Fc-APC
Method: KATO3 cells (high expression of CEACAM5) were cultured in RPMI1640 medium containing 10% FBS. After the cells were digested with TrypLE trypsin, they were centrifuged and resuspended in DPBS solution containing 2% BSA (FACS buffer, 4° C.), and added to a U-bottom 96-well plate, 5×10⁵/100 μl/well, the antibody diluted in concentration gradient was added, incubated at 4° C. for 1 hour, the supernatant was discarded after centrifugation; 100 μl of solution containing anti-human IgG Fc-APC secondary antibody was added to each well and incubated at 4° C. for 1 hour, then washing was performed with FACS buffer once, resuspending was performed in 200 μl of FACS buffer, and the fluorescence signal value was read on BD C6 plus.

[2] = biological target: T2, recombinant CEACAM5 antigen …; assay: ELISA, coated recombinant CEACAM5-His 1 µg/ml, anti-human IgG Fc-HRP
Method: Recombinant CEACAM5 antigen (Sinobiological, 11077-H08H) was diluted to 1 μg/ml with DPB S solution, add into a 96-well plate, 100 μl per well, and coated overnight at 2-8° C.; the coating solution was discarded, washing was performed twice with PBS solution, PBS solution containing 2% BSA was added, and blocking was performed at room temperature for 2 hours; the blocking solution was discarded, the humanized antibody diluted in concentration gradient was added, and incubated at 37° C. for 1 hour; the antibody solution was discarded, and washing was performed for 4 times with PBS solution containing 0.05% Tween 20 (PBST solution); the anti-human IgG Fc-HRP secondary antibody was added and incubated at 37° C. for 30 minutes; washing was performed for 4 times with PBST solution, TMB chromogenic substrate was added, and color development was carried out for 5-10 minutes, then the reaction was terminated by adding equal volume of 1M H₂SO₄; the absorbance at 450 nm was read on a microplate reader.

[3] = biological target: T1, CEACAM5 (CD66e) on tumour cells; assay: competition by flow cytometry on KATO3 cells; competitor mouse M19 (m2F4) at 1 µg/ml, detected with anti-mouse IgG Fc-APC
Method: KATO3 cells (high expression of CEACAM5) were cultured in RPMI1640 medium containing 10% FBS. After the cells were digested with TrypLE trypsin, they were centrifuged and resuspended in DPB S solution containing 2% BSA (FACS buffer, 4° C.), and added a U-bottom 96-well plate, 5×10⁵/100 μl/well, the mouse monoclonal antibody M19 antibody (m2F4) was added to 1 μg/ml and the humanized antibody diluted in gradient (50 μg/ml, 3-fold dilution) was added, then incubated at 4° C. for 1 hour, the supernatant was discarded after centrifugation; 100 μl of solution containing anti-mouse IgG Fc-APC secondary antibody was added to each well and incubated at 4° C. for 1 hour, washing was performed once with FACS buffer, resuspending was performed in 200 μl FACS buffer, and the fluorescence signal value was read on BD C6 plus.

[4] = biological target: T1, CEACAM5 (CD66e) on tumour cells; assay: hybridoma supernatant on Lovo cells, anti-mouse Fc-FITC, Celigo imaging
Method: Lovo cells and Lovo CEA KO cells were inoculated in 96-well plates, 10⁴ per well, and cultured overnight, 1-10 μl of hybridoma supernatant was added to Lovo/Lovo CEA KO cell culture plates, incubated for 1 hour, the supernatant was discarded, anti-mouse Fc-FITC fluorescent secondary antibody was added, incubated for 1 hour, the supernatant was discarded, DPBS solution containing 2% BSA was added, the fluorescent signals and FITC staining areas were read and analyzed in Celigo.

Binder	EC50 [1] [µg/mL]	Emax [1] [%]	EC50 [2] [µg/mL]	Emax Inhibition, % [3] [%]	IC50 [3] [µg/mL]	binding result [2]	Lovo binding percentage [4] [%]
Humanized antibody hAb-013 (antibody, V domains shown, also called hM19-11) VH: EVQLVESGGGLVQPGGSLRLSCAASGFTFTDYYMDWVRQAPGKALEWVGFTRNKVNGDTTEYAASVKGRFTISRDDSKNSLYLQMNSLKTEDTAVYYCARDKGIAYYFDYWGQGTLVTVSS VL: QIVLTQSPATLSASPGERATLSCRASSSVSYIHWYQQKPGQSPRPLIYGTSNLASGVPARFSGSGSGTDFTLTISSLEPEDAAVYYCQQWSSNLSTFGGGTKVEIK	12.7	49.3	6.1	89	5.2	–	–
Humanized antibody hAb-005 (antibody, V domains shown, also called hM19-3) VH: EVQLVESGGGLVQPGGSLRLSCAASGFTFTDYTMSWVRQAPGKALEWVGFIRNKVNGDTTEYSDSVEGRFTISRDNSKNTLYLQMNSLRAEDTAVYYCARDKGIAYYFDYWGQGTLVTVSS VL: DIQLTQSPSSLSASVGDRVTITCRASSSVSYIHWYQQKPGKSPKPWIYGTSNLASGVPSRFSGSGSGTDYTLTISSLQPEDAATYYCQQWSSNLSTFGQGTKVEIK	3250	9.1	–	–	–	no binding	–
Humanized antibody hAb-006 (antibody, V domains shown, also called hM19-4) VH: EVQLVESGGGLVQPGGSLRLSCAASGFTFTDYYMNWVRQAPGKGLEWLGFIRNKVNGDTTEYSASVKGRFTISRDISKNSLYLQMNSLKTEDTAVYYCARDKGIAYYFDYWGQGTLVTVSS VL: DIVLSQSPGTLSLSPGERATLSCRASSSVSYIHWYQQKPGQAPRPWIHGTSNLASGIPDRFSGSGSGTDYTLTISRLEPEDFAVYYCQQWSSNLSTFGGGTKVEIK	5.7	118	3.11	47.2	6.9	–	–
Humanized antibody hAb-009 (antibody, V domains shown, also called hM19-7) VH: EVQLVESGGGLVQPGGSLRLSCAASGFTFTDYYMNWVRQAPGKALEWLGFIRNKVNGDTTEYAASVKGRFTISRDDSKNSLYLQMNSLKTEDTAVYYCARDKGIAYYFDYWGQGTLVTVSS VL: EIVLTQSPATLSASPGERATLSCRASQSVSYIHWYQQKPGQSPRPWIHGTSNLATGVPARFSGSGSGTDFTLTISSLEPEDAAVYYCQQWSSNLSTFGGGTKVEIK	1.8	109	2.87	62.7	2.7	–	–
Humanized antibody hAb-016 (antibody, V domains shown, also called hM19-14) VH: EVQLVESGGGLVQPGGSLRLSCAASGFTFTDYYMDWVRQAPGKALEWVGFTRNKVNGDTTEYAASVKGRFTISRDDSKNSLYLQMNSLKTEDTAVYYCARDKGIAYYFDYWGQGTLVTVSS VL: EIVLTQSPGTLSASPGERATLSCRASSSVSYIHWYQQKPGQSPRPLIYGTSNLASGVPDRFSGSGSGTDFTLTISRLEPEDAAVYYCQQWSSNLSTFGGGTKVEIK	3.2	48.4	4.32	73.2	6.4	–	–
Humanized antibody hAb-010 (antibody, V domains shown, also called hM19-8) VH: EVQLVESGGGLVQPGGSLRLSCAASGFTFTDYYMDWVRQAPGKALEWVGFIRNKVNGDTTEYAASVKGRFTISRDDSKNSLYLQMNSLKTEDTAVYYCARDKGIAYYFDYWGQGTLVTVSS VL: EIVLTQSPATLSASPGERATLSCRASSSVSYIHWYQQKPGQSPRPLIYGTSNRATGVPARFSGSGSGTDFTLTISSLEPEDAAVYYCQQWSSNLSTFGGGTKVEIK	1.3	60.6	3.56	75	2.3	–	–
Humanized antibody hAb-017 (antibody, V domains shown, also called hM19-15) VH: EVQLVESGGGLVQPGGSLRLSCAASGFTFTDYYMDWVRQAPGKALEWVGFTRNKVNGDTTEYAASVKGRFTISRDDSKNSLYLQMNSLKTEDTAVYYCARDKGIAYYFDYWGQGTLVTVSS VL: EIVLTQSPATLSASPGERATLSCRASSSVSYIHWYQQKPGQSPRPLIYGASNLASGVPARFSGSGSGTDFTLTISSLEPEDAAVYYCQQWSSNLSTFGGGTKVEIK	2.2	57.7	7.05	73.9	4.5	–	–
Humanized antibody hAb-003 (antibody, V domains shown, also called hM19-1) VH: EVQLVESGGGLVQPGGSLRLSCAASGFTFTDYFMNWVRQAPGKALEWVGQMRNKVNGDTTEYAESVEGRFTISRDDSKNSLYLQMNSLKTEDTAVYYCARDKGIAYYFDYWGQGTLVTVSS VL: DIQMTQSPSSLSASVGDRVTITCRASSSVSYIHWYQQKPGKSPKPLIYGTSNLASGVPSRFSGSGSGTDFTLTISSLQPEDAATYYCQQWSSNLSTFGQGTKLEIK	2.7	85.1	3.69	51.3	3.9	–	–
M18 (7G1), mouse hybridoma antibody (antibody, V domains shown, Hybridoma supernatant, detected with anti-mouse Fc) VH: QIQLVQSGPELKKPGETVKISCKASGYTFTTYGMTWVKQAPGKGLKWMGWINTYSGVPTYIDDFKGRFAFSLETSASTAYLQINNLKNEDTATYFCGRKDLLGFMDYWGQGTSVTVSS VL: DIQMTQSPSSLSASLGGKVTITCKTSQDINKFMAWYQHKPGKGPRLLIRYTSTLQPGIPSRFSGSGSGRDYSFSIRNLEPEDIATYYCLQYDDLTWTFGGGTKLEI	–	–	–	–	–	–	89.5
M7 (11B6), mouse hybridoma antibody (antibody, V domains shown, Hybridoma supernatant, detected with anti-mouse Fc) VH: EVQLQQSGAELVRPGASVKLSCTVSGFNIKDDYMHWVKQRPEQGLEWIGWIDPENGDTEYASKFQGKATITADTSSNSAYLQLSSLTSEDTAVYYCTFIYYVNPHYYAMDYWGQGTSVTVSS VL: QIVLTQSPAIMSASPGEKVTITCSATSSVSYMHWFQQKPGTSPKLWIYSTSNLASGVPARFSGSGSGTSYSLTISRVEAEDAATYYCQQRSSYPLTFGAGTKLELK	–	–	–	–	–	–	54.6
M17 (6A8), mouse hybridoma antibody (antibody, V domains shown, Hybridoma supernatant, detected with anti-mouse Fc) VH: EVQLQQSGAELVRPGASVKLSCTASGFNIKDDYMHWVKQRPEQGLEWIGWIDPENGDTEYASKFQGKATITADTSSNTAYLLLSSLTSEDTAVYYCTTIYYYGSRGAMDYWGQGTSVTVSS VL: QIVLTQSPAIMSASPGEKVTITCSASSSVSYMHWFQQKPGTSPKLWIYTTSTLASGVPARFSGSGSGTSYFLTISRMEAEDAATYYCHQRSSYPLTFGAGTKLELK	–	–	–	–	–	–	34.7
